51 sequences from the domain aggregation screens of Martell et al. (2025) can be followed below.

This data set is described as follows: soluble fraction after stress (log2 fold change); higher = more stays soluble; pooled small domains, quantitative proteomics. The following applies: stress: 50 degC. In short, it runs like this:
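Pooled custom libraries of small protein domains were measured in a high-throughput format, with quantitative proteomics as the read-out. Each library was stressed at 50°C. Aggregation propensity is given as the base-two logarithm of the fold change in how much of each protein stays soluble after the stress. Higher values mean a larger share of the protein remains in solution.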
For the sequence “HMQKRDQKKRANMLDSLKVGTRIVTIGGIFGEIAKIKDDRIRIKVAEDVEIWIRRAAVGTVIT”, the “soluble fraction (log2)” value is -0.207. With “HMQKTPFEIMTIYKDQILEMLGKDLTATEISIVLKKKGEKVHPREIRKFQLQHYEEVQDMRKKWRE” the figure was -1.16; with “HMQKWILVNKQGRLSGILDHRAFNTRESATAWFQRTSDISGGTIKIDDYYYVLKNEEYKLLKE”, -3.15.

Regarding “HMQKYEDIINVTRERLQNKFYSQTVIPTDDDIYIWLDKVAILEEIKLSKEDRQMLFNLLKKEAT”, the “soluble fraction (log2)” value was -0.451. With “HMQLGQMIVKLRKEQGLTQETFAKKFNVTRQTVSNWENEKSYPDLHTLVKISDEFHLSLDILLK” the figure was -2.8; with “HMQLGSILAYKFPQFGGIDGAWQVRDDSNGTGPYIAFWDAKTIGRGMPTEDELTAWAQEYEA”, -0.153; with “HMQLPTPEDLKKRRNELGLTQSDLAKRAGVSQPLIARIESGDVDPRLSTVRKILDAFEEVEKEQQ”, 0.0795. With “HMQLSASQQQILNHAAVNTDGKLVWFPETLKGGARKKVLDSLFSRALITTDGTHWFVAAEGYEALGIP” the figure was -0.877.

Consider “HMQLTDLSALEAIIKEVLAANPKSVEDYKSGKEKAFGSLVGQAMKATKGKANPETVNSLLRKNLN”, for which the “soluble fraction (log2)” value worked out at 0.519.

In the case of “HMQLTDSDFTRLYTYVKNSYGIDLSKKKQLISSRLTNMLIQQGYRDFTQYTDEIISGKNPEMVSAMLNRLT”, the “soluble fraction (log2)” value is -0.232.

Take “HMQLTPAQHAILAKAIHSSDGKIEWFPDNVKGGARKKVLEGMFNRALITPDGEGWRIAAEGYDALGMPRP”: the “soluble fraction (log2)” value is -0.0604.

With “HMQLVGSSAAVLIPAPAGGLGKIRLEFRGQTIDLIAKATDGGALIEGGAVTIVDVRDGQADVSV”, the “soluble fraction (log2)” value is -0.552. As to “HMQMMDATLKIPPSMGKLRGTLYELNSVTSEDVDENGQLALHVRLSSVDWQRLKKRFDSNLDELIVQKN”, the “soluble fraction (log2)” value was -0.0668. The same measure for “HMQMPLTMATMGEVNKIVKVGGNEETRRFLANLGFVAGAEVVVLSKIGGNVIVNVKDSRVAVNEDMARHIM”: -0.997; for “HMQMSDTAAIGKIVDEVFAENPAALEDYAKGKTNVVDWLTGQVMKKSRGQANPGIASELVQKRLADF”: 0.122; for “HMQMSDTGAIEAMVKEALDENPQAIEDFKNGKGKALGFLMGQVMKKSKGQANGGIVNKLIKEELQKRIG”: 0.181. With “HMQMTKSEFLDALRRALNGNMAAASVDDNIRFYDSYFYTEETKGRSEAEILSELGDPRILARTLIDAAD”, the “soluble fraction (log2)” value amounted to 0.0125. The same measure for “HMQNEIQQLAIDLIARAHKSGASDIHIVDTGTYTRIKFRVLGLLREDSQMEAETGRQMISTIYGILG”: -0.135. With “HMQNEKLSYFVTETIVTERADLFITKKFPQFSRSQIQKLINSGNITINSNPIKASTEIINKDNIEITIPV” the figure was -1.14. With “HMQNESGLFTMSDLWEAGLMGSENASRKRAAVGAFLGIGFGNGKQFLKRLNHFGVTKEEWESALEQLGE” the figure was -0.684; with “HMQNEVMPYSTFLSEVNSGNVTKVKIDHEQLTGTLKSGKQFTTYILDAATLPSIVAEKGVEVEVVPP”, 0.357. For “HMQNGNYVVQRQDSLWSIAARISGQTHQPIGEVMNHIKALNEHAFVGGNVNRLRTGTNLNLG”, the “soluble fraction (log2)” value is -0.156.

As to “HMQNKRQEQLLALLAERRDYMTSRQLAEILQVSDRTIRSDVEAINRRSSPPPIESNVRQGYRLNPEA”, the “soluble fraction (log2)” value turned out to be 0.0852.

On to “HMQNNIEFTVLEEDAQKRLDVLLSEKTALSRSASASLIEEGGVLVNGRKEPKKYKPVRGEIITAILPE”, for which the “soluble fraction (log2)” value is -0.0707. The same measure for “HMQNNTIAFSKFLQEVDNGRVVQVEIQGNNINGILSDGSKFNTYSPNYPALVEKLSEKNVNIVASPV”: 0.0149; for “HMQNPDHLLALAAAAQAAIELGRPDEAEAYYRHLVEVYGVEMASQKPEYLDHSGITNDLRNVAEGFLVG”: -0.746; for “HMQNRIVNTTQGLAADKRGLLVADETGHTTRPGIFASGDVVNGARTVVEAVAHSKIVAESMHQYMQ”: at least 0.62.

Turning to “HMQNSLKAFRVKRGLTTSALSRLTNGEFSTSRISNYETGVRALTIDAAKKLAPHLGASPAQLLNL”, the “soluble fraction (log2)” value was -0.357. Take “HMQNSPVFAASDIEDIRVGMTVEHQRFGQGRVMSIEGNGPNKKTTVLFEGIGEKQLLLQYAKLKIV”: the “soluble fraction (log2)” value is 0.157. The same measure for “HMQNYLLFEEAKNIVNTLNLTNEKDWSEFIKKDFTYKNQIPIFPNQYYKHKGWVDWNDWLGINK”: -1.56. Regarding “HMQNYTTIIGVIELRLNDISYDNVRKRYHIGRSGITLIMDRYRDSGLSLEDLKQMTPEKVVDLFYPR”, the “soluble fraction (log2)” value is -2.3.

Turning to “HMQPAALEAQVIKLVRLHAPIKARQLATILANEFGQHVDRSTVNSLLYQLRAQGKVAQNAAYQWSLT”, the “soluble fraction (log2)” value is -0.65. Turning to “HMQPEKELAPLIGQRVSVRLHDGDGGYRDLLGELESPDSIRKKNGEIAFFDPAKIAALRVVV”, the “soluble fraction (log2)” value worked out at 0.0899.

Take “HMQPGDRVDALIVGVSGEHVFLDVGGKSEGVMAAAELRNEAGELSAAEGDRVQVYLLSNRNGELIFTA”: the “soluble fraction (log2)” value is 0.00616.

Turning to “HMQPHLSADEEHLLKILGSDTMHIDALVKRSTLETSNALAALAFLEMKGLVKNIGNMHYIRTYR”, the “soluble fraction (log2)” value was -0.139. With “HMQPIAVHIGTENPMKSLSDLSVVRAQFTSGGRVIGSVAVLGPTRMQYSRIVGMMRFMQQRLDLLLKG” the figure was 0.0586; with “HMQPKKLNMYYDYVRQLLESHPYLSAAQIEDRLKEEFTELPMVHSKTVFNFVENIRLQHGINKHA”, -0.152.

Turning to “HMQPLRQGDFVTSEVVKVQDGTAVLRTAQGTLLSASLTGNLGLLPGDRVETVVVEASPGRFVLRVLDIIR”, the “soluble fraction (log2)” value was -0.15. With “HMQPPLTPRELGVLQWAAEGKTTRDTSAILQIHQRTVEMHLKSAREKLDALNTTHAVARALAHGFILPPS”, the “soluble fraction (log2)” value was -0.0855. The same measure for “HMQPPVDGNEIMEIFGIKGSPVIGVIKSTIKNAILDGIIAPNDREAALELMFRIADENGLKPVVTQTQ”: 0.101; for “HMQPRYMLIKTAILDAIERGEMKPGSQVPSENQLAQQHNVSRMTARRALSEMVDDGILMRSQGIGTFVSD”: -0.0879. The same measure for “HMQPSFFEMIRMVESYIKQHFENVGNEFPEIARAIYYGIEEERNIYGTASREDMEELLDEGIPILPVP”: -0.926. With “HMQPVEHLPTTDPLTTSAASEHERYEKVRWWLEEMQRTYETGDEVRAERIRLSLIEQMYKWEGE”, the “soluble fraction (log2)” value was -0.185. With “HMQPYTYNPNFLSDYRAYSLGIPLEAYDKLVQFRASGSFVNSMSDFQKITGVSDSLLAVLHSKFRYPK” the figure was -0.884; with “HMQQELEEMESGNLVRTAIDSLPINQRTAFILSAYEELPIKEIASIMNRSEGAVEQLLQRAKMNLKKKIK”, 0.347. As to “HMQQLTDRELEVLRLLAAGLSNNKIGEKLYISATTAKFHVSNIMRKLEVSRRAEAVYAASKRGL”, the “soluble fraction (log2)” value is -2.

On to “HMQQLTQRELTLLRLLANGYNNRQIAEQLQLAESTVKNNLSALFQKIGVRDRTQAVLFAISQGLVP”, for which the “soluble fraction (log2)” value is -0.656. Turning to “HMQQNDMTELRALAEKIISENDSVINDYKSGQGSALQFLIGQAMKETKGSANPQVISEIFTDLL”, the “soluble fraction (log2)” value is -0.225.

Regarding “HMQQPIPGEAYLTRRPGSDHFQIAFTIDGHRVRESSGTSDKVAAAALAQKRYEEVWREIKLGEK”, the “soluble fraction (log2)” value was determined as 0.2. With “HMQQPVAYSEFVQSVNDRQIREAQIQGERIVATDNNGNRMTVIWPENDTKLLDELVQNGVLTSIQE” the figure was 0.12; with “HMQQVDWGSVFGDFGTMFKDQLQPTIDRLRRMAQSDTFRQSSLEEQQILYSLIEKLERSGTA”, -1.03.
